According to article PMC7914648 (Pharmaceuticals, 2021):
“Also recorded” adds a separate entry of the source.

Key:
[1] = type: in vivo, mouse; conditions: An2-PAPTP 5 µmoles/kg bw i.v. in mouse plasma
Description: The brains of these mice were analyzed to evaluate the presence of the construct in the tissue (see Section 4.7). Each brain was homogenized and incubated with an equal volume of phosphate-buffered saline (PBS, pH 12.5) for 24 h; 10 volumes of ethyl acetate were then added. After vigorous mixing, the organic phase was collected, concentrated and analyzed via HPLC. This procedure allows hydrolysis of the carbamate bond, leading to the extraction of PAPTPL, which is considered proportional to the amount of peptide-PAPTP conjugate (or its fragments) present in the brain.
The protocol set up for PAPTPL recovery turned out to be inefficient for the quantification of TAT-PAPTP. An alternative protocol was thus developed. Tissue obtained from untreated mice was weighed and homogenized with PBS pH 7.4 (1 vol) with a potter. The pre-established amount of analyte was added into tissue homogenates and, after thorough vortexing, 1 vol of PBS pH 12.5 was added and the sample was incubated with intermittent vortexing at 60 °C for 24 h. This step is required to allow the hydrolysis of the carbamate bond connecting the peptide and PAPTPL. 10 vol of ethyl acetate were added and, after vortexing and sonication for 2 min, the sample was centrifuged at 12,000× g, 7 min, Room Temperature. The organic phase was collected and concentrated with Hetovac VR-1. ACN was added to the concentrated sample to allow the resuspension of PAPTPL and analyzed via HPLC. Quantification was as described for PAPTPL.
Brain and liver obtained from untreated mice were weighed and homogenized with PBS pH 7.4 (1 vol) with a potter. The pre-established amount of analyte was added into tissue homogenates and, after thorough vortexing, 5 vol of acetone were added and the sample was sonicated for 2 min. Subsequently, 5 vol of ACN containing 0.1% trifluoracetic acid (TFA) were added and the sample was sonicated for 5 min. The sample was then centrifuged at 12,000× g for 7 min at 4 °C and the supernatant was collected, concentrated with a Hetovac VR-1, and analyzed via HPLC-UV.
To quantify the amount of An2-PAPTP stuck in the tissue, the pellet remaining after the procedure described above was incubated with intermittent Vortexing at 60 °C for 3 h with PBS pH 12.5/ACN 1:1 and then centrifuged at 12,000× g for 7 min. HPLC-UV analysis of the supernatant, measuring PAPTPL hydrolyzed from the tissue, thus indirectly reflects the amount of An2-PAPTPL in the pellet (Scheme 3). Quantification was as described for PAPTPL.
(§1) A stock solution of the peptide-PAPTP conjugates was prepared in DMSO. TAT-PAPTP was administered at 8 and 5 μmol/kg bw and An2-PAPTP only at 5 μmol/kg bw. The calculated quantity of drugs was diluted from the stock solution in saline or mouse plasma to a final volume of 200 μL.

C57BL mice = test: Observed toxicity after tail vein injection; type: in vivo; conditions: 5 µmoles/kg bw by tail vein injection in mouse plasma; no proper toxicological study
Description: TAT-PAPTP (5 µmoles/kg bw) was administered by tail vein injection to 2 C57BL mice. […] The observed toxicity was not due to the use of plasma, since mice were not made ill by the administration of PAPTP or An2-PAPTP in the same vehicle (see below, Section 2.7).
as §1

With `CC[C@H](C)[C@H](NC(=O)Oc1ccc(CCCOc2ccc([P+](CCCc3ccc(OCCCCOc4c5ccoc5cc5oc(=O)ccc45)cc3)(c3ccccc3)c3ccccc3)cc2)cc1)C(=O)N[C@H](C(=O)N[C@@H](Cc1ccccc1)C(=O)N[C@@H](Cc1ccccc1)C(=O)N[C@@H](Cc1ccc(O)cc1)C(=O)NCC(=O)NCC(=O)N[C@@H](CO)C(=O)N[C@@H](CCCNC(=N)N)C(=O)NCC(=O)N[C@@H](CCCCN)C(=O)N[C@@H](CCCNC(=N)N)C(=O)N[C@@H](CC(N)=O)C(=O)N[C@@H](CC(N)=O)C(=O)N[C@@H](Cc1ccccc1)C(=O)N[C@@H](CCCCN)C(=O)N[C@H](C(=O)N[C@@H](CCC(=O)O)C(=O)N[C@@H](CCC(=O)O)C(=O)N[C@@H](Cc1ccc(O)cc1)C(=O)O)[C@@H](C)O)[C@@H](C)O` [An2-PAPTP] the “Brain Psoralenic Species (nmol/g Tissue), 15 min” value ([1]; 15 min, PAPTPL after carbamate hydrolysis, mean ± SEM, n = 5) was 0.3 ± 0.1 nmol/g Tissue, the “Brain Psoralenic Species (nmol/g Tissue), 30 min” value ([1]; 30 min, PAPTPL after carbamate hydrolysis, mean ± SEM, n = 4) was 0.4 ± 0.6 nmol/g Tissue and the “presence in brain one hour post-injection” value ([1]; one hour) was “only a trace could be detected”. The “observed toxicity in mice” value (C57BL mice) was “not made ill; also recorded: considerably less toxic than TAT-PAPTP; also recorded: did not show toxicity”.
